{
  "source": "patent US20240327522A1",
  "about": "(Genentech, published 2024)",
  "binders": {"B1": {"name": "Hu.aVb8-65.H15L2 (aVb8-65.H15L2.hIgG1.LALAPG) (antibody, V domains shown)", "VH": "EVQLLESGGGLVQPGGSLRLSCAASGIDLSNYAMIWVRQAPGKGLEWVGIISSSDRIWYASWVKGRFTISRDNSKNTLYLQMNSLRAEDTAVYYCSRSVSNSYFDGWNLWGQGTLVTVSS", "VL": "DIQMTQSPSSVSASVGDRVTITCQASENINSLLAWYQQKPGKAPKLLIYRASTLASGVPSRFSGSGSGTDFTLTISSLQPEDFATYYCQSNYGFTGSGAFFYGFGQGTKVEIKR", "notes": "Human IgG1 LALAPG; also called PARS-20475-65 (IH) aVb8-65.H15L2.hIgG1.LALAPG; humanized αvβ8-65"}},
  "target": "T1, human αvβ3 (human, UniProt P06756 31-992; P05106 27-718)",
  "T1 construct": "Counter-screen integrin; construct not described; also called hu.aVb3; αV03",
  "T1 sequence (P06756 31-992 limits assumed, chain 1 of 2)": "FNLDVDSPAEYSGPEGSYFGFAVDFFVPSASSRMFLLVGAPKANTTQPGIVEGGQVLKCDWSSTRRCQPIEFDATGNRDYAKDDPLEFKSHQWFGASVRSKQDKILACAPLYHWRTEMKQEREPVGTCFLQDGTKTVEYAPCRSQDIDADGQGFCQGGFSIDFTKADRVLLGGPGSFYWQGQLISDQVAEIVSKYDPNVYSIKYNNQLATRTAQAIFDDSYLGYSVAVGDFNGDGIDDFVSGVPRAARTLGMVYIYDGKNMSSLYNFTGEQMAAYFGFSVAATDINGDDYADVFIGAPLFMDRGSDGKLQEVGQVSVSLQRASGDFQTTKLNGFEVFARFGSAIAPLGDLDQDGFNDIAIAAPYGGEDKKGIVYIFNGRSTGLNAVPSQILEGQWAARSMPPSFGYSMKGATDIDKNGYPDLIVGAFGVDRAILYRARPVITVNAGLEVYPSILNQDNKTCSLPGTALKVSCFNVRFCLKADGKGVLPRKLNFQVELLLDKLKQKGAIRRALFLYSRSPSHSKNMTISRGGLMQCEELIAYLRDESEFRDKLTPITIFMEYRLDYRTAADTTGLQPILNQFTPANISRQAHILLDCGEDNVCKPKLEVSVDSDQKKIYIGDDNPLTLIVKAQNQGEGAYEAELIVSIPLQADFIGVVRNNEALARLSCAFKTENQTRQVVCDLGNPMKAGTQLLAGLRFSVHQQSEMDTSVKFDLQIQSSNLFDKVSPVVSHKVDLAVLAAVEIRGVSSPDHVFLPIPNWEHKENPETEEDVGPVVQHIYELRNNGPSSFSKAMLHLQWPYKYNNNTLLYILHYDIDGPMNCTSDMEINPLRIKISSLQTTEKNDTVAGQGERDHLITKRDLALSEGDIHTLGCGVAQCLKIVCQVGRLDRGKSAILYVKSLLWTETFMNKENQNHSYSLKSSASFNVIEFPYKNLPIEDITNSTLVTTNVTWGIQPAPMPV",
  "T1 sequence (P05106 27-718 limits assumed, chain 2 of 2)": "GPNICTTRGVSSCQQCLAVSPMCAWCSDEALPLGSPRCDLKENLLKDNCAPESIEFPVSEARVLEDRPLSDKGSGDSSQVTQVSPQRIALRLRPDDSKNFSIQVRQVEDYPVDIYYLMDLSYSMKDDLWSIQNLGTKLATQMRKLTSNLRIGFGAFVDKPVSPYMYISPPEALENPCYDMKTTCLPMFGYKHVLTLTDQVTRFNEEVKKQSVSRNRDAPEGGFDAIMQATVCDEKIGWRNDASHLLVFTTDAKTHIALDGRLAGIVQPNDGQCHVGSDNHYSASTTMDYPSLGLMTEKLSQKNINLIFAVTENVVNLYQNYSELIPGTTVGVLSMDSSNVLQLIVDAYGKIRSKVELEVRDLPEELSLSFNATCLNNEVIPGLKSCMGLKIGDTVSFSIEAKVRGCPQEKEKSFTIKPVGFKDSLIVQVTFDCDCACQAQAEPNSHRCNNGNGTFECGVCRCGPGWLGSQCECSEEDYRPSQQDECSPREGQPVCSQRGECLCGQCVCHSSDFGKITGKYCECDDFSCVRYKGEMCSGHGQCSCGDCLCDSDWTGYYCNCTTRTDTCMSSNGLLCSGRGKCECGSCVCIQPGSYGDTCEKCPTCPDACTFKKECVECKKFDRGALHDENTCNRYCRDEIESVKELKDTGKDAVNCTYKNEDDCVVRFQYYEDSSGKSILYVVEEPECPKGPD",
  "experiment": "SPR binding assay, sample hu.aVb1,3,5,6",
  "data": [
    {"binder": "B1", "values": [
      {"measurement": "binding result", "value": "no binding"}
    ]}
  ]
}
